Key:
4H4073-bN = molecular target: T1, 4H4073-bN; experiment: two-hybrid library CCNG1;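 further: natural log of median RNA to DNA barcode read ratio; higher means stronger binding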
T1 chain: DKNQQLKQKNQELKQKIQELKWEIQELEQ

4H457-bN = molecular target: T2, 4H457-bN; experiment: two-hybrid library CCNG1;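 further: natural log of median RNA to DNA barcode read ratio; higher means stronger binding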
T2 chain: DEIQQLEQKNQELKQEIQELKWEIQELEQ

4H575-bN = molecular target: T3, 4H575-bN; experiment: two-hybrid library CCNG1;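 further: natural log of median RNA to DNA barcode read ratio; higher means stronger binding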
T3 chain: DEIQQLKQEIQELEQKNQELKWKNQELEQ

4H683-bN = molecular target: T4, 4H683-bN; experiment: two-hybrid library CCNG1;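 further: natural log of median RNA to DNA barcode read ratio; higher means stronger binding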
T4 chain: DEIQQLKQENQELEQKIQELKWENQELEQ

4H754-bN = molecular target: T5, 4H754-bN; experiment: two-hybrid library CCNG1
T5 chain: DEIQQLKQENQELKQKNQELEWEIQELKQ

4H780-bN = molecular target: T6, 4H780-bN; experiment: two-hybrid library CCNG1
T6 chain: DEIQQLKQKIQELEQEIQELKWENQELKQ

4H797-bN = molecular target: T7, 4H797-bN; experiment: two-hybrid library CCNG1
T7 chain: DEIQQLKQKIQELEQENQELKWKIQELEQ

4H855-bN = molecular target: T8, 4H855-bN; experiment: two-hybrid library CCNG1
T8 chain: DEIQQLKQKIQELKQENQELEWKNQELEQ

4H918-bN = molecular target: T9, 4H918-bN; experiment: two-hybrid library CCNG1
T9 chain: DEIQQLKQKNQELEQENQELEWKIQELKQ

4H953-bN = molecular target: T10, 4H953-bN; experiment: two-hybrid library CCNG1
T10 chain: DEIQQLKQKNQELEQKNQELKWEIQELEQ

4H968-bN = molecular target: T11, 4H968-bN; experiment: two-hybrid library CCNG1
T11 chain: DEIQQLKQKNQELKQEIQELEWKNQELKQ

4H3381-bA = molecular target: T12, 4H3381-bA; experiment: two-hybrid library CCNG1
T12 chain: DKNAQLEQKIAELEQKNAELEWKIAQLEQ

4H349-bA = molecular target: T13, 4H349-bA; experiment: two-hybrid library CCNG1
T13 chain: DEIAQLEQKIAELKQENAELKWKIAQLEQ

4H4001-bA = molecular target: T14, 4H4001-bA; experiment: two-hybrid library CCNG1
T14 chain: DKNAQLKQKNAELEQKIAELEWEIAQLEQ

4H56-bA = molecular target: T15, 4H56-bA; experiment: two-hybrid library CCNG1
T15 chain: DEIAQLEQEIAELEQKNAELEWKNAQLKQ

4H730-bA = molecular target: T16, 4H730-bA; experiment: two-hybrid library CCNG1
T16 chain: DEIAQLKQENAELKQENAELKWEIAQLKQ

4H796-bA = molecular target: T17, 4H796-bA; experiment: two-hybrid library CCNG1
T17 chain: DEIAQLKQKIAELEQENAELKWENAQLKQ

4H932-bA = molecular target: T18, 4H932-bA; experiment: two-hybrid library CCNG1
T18 chain: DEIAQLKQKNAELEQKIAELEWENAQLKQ

4H949-bA = molecular target: T19, 4H949-bA; experiment: two-hybrid library CCNG1
T19 chain: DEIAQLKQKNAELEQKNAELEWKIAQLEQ

O9-bH = molecular target: T20, O9-bH; experiment: two-hybrid library CCNG1; conditions: mean of both orientations
T20 chain: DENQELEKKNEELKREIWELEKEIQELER

APC4011-AA = molecular target: T21, APC4011-AA; experiment: two-hybrid library CCmax
T21 chain: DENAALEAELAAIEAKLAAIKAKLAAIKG

APC4264-AA = molecular target: T22, APC4264-AA; experiment: two-hybrid library CCmax; conditions: mean of both orientations
T22 chain: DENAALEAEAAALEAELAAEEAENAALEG

APC4436-AA = molecular target: T23, APC4436-AA; experiment: two-hybrid library CCmax; conditions: mean of both orientations
T23 chain: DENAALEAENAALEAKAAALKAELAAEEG

APC5383-AA = molecular target: T24, APC5383-AA; experiment: two-hybrid library CCmax; conditions: mean of both orientations
T24 chain: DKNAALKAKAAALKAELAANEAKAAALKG

APC6108-AA = molecular target: T25, APC6108-AA; experiment: two-hybrid library CCmax; conditions: mean of both orientations
T25 chain: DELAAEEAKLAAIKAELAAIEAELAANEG

APC7099-AA = molecular target: T26, APC7099-AA; experiment: two-hybrid library CCmax; conditions: mean of both orientations
T26 chain: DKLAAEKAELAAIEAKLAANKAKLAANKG

APC8191-AA = molecular target: T27, APC8191-AA; experiment: two-hybrid library CCmax
T27 chain: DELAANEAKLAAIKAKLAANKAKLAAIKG

APC8910-AA = molecular target: T28, APC8910-AA; experiment: two-hybrid library CCmax; conditions: mean of both orientations
T28 chain: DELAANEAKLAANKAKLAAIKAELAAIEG

APC9096-AA = molecular target: T29, APC9096-AA; experiment: two-hybrid library CCmax; conditions: mean of both orientations
T29 chain: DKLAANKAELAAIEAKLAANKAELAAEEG

APC9319-AA = molecular target: T30, APC9319-AA; experiment: two-hybrid library CCmax; conditions: mean of both orientations
T30 chain: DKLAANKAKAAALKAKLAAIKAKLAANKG

For DKNQQLKQKNQELKQKIQELKWEIQELEQ [4H4073-bN], the interaction score (4H4073-bN) was -1.77, the interaction score (4H457-bN) was -0.816 and the interaction score (4H575-bN) was -1.72. For the same binder, the interaction score (4H683-bN) was -1.31, the interaction score (4H754-bN) was -1.18 and the interaction score (4H780-bN) was -0.882. It also gave an interaction score (4H797-bN) of -0.921, an interaction score (4H855-bN) of -0.729 and an interaction score (4H918-bN) of -0.772. It also gave an interaction score (4H953-bN) of -1.56 and an interaction score (4H968-bN) of -1.13.

Binder DKNAQLEQKIAELEQKNAELEWKIAQLEQ [4H3381-bA] has an interaction score (4H3381-bA) of 0.241, an interaction score (4H349-bA) of -1.06 and an interaction score (4H4001-bA) of -0.563. It also gave an interaction score (4H56-bA) of -0.961, an interaction score (4H730-bA) of -1.47 and an interaction score (4H796-bA) of -0.941. For the same binder, the interaction score (4H932-bA) was -0.845 and the interaction score (4H949-bA) was -1.1.

Work on DENQELEKKNEELKREIWELEKEIQELER [O9-bH] yielded an interaction score (O9-bH) of -0.295.

Work on DENAALEAELAAIEAKLAAIKAKLAAIKG [APC4011-AA] yielded an interaction score (APC4011-AA) of 2.04, an interaction score (APC4264-AA) of -1.72 and an interaction score (APC4436-AA) of -1.48. It also gave an interaction score (APC5383-AA) of -1.52, an interaction score (APC6108-AA) of 0.352 and an interaction score (APC7099-AA) of -1.45. For the same binder, the interaction score (APC8191-AA) was -1.55, the interaction score (APC8910-AA) was -1.43 and the interaction score (APC9096-AA) was -1.88. The interaction score (APC9319-AA) was -1.27.
